This is an account of results in patent publication US8581042B2, “Polypeptides having beta-glucosidase activity and polynucleotides encoding same” (Novozymes A/S, priority 2010, dated 2013).

A short description of data set [1]: PCS hydrolysis assay (1-gram ground-sieved, unwashed PCS), cellulose conversion. The data set is classed as biochemical. The settings on record: supplemented; 50 and 55° C., pH 5.0. The protocol: Corn stover was pretreated at the U.S. Department of Energy National Renewable Energy Laboratory (NREL) using dilute sulfuric acid. The conditions used for the pretreatment were 0.048 g sulfuric acid/g dry biomass at 190° C. and 25% w/w dry solids for around 1 minute. The water-insoluble solids in the pretreated corn stover (PCS) contained 52% cellulose, 3.6% hemicellulose and 29.8% lignin. Cellulose and hemicellulose were determined by a two-stage sulfuric acid hydrolysis with subsequent analysis of sugars by high performance liquid chromatography using NREL Standard Analytical Procedure #002. Lignin was determined gravimetrically after hydrolyzing the cellulose and hemicellulose fractions with sulfuric acid using NREL Standard Analytical Procedure #003. […] The protein concentration was determined using a BCA Reagent Kit (Pierce, Rockford, Ill., USA).
Penicillium oxalicum GH3 beta-glucosidase (1.5 mg/g cellulose) was added to CELLUCLAST® 1.5L (15 mg/g cellulose) for a total loading of 16.5 mg protein/g cellulose. […] After 72 hour incubation at 50 and 55° C., samples were mixed well, centrifuged at 3000 rpm for 5 minutes, and supernatants were filtered using a 0.45 μm MULTISCREEN® 96-well filter plate (Millipore, Bedford, Mass., USA) and filtrates analyzed for sugar content as described below. […]

Data set [2] in a line: pH activity profile on pNPG. The data set is classed as biochemical. The settings on record: Britton Robinson buffer, 50° C. As for the experimental part: (§1) Specific activity. 4-Nitrophenyl-beta-D-glucopyranoside (pNPG) was dissolved in DMSO to produce a 100 mM stock solution. Right before assay, the 100 mM pNPG stock solution was diluted 100-fold in 50 mM sodium acetate pH 5 with 0.01% TWEEN® 20 to 1 mM pNPG. Enzyme was diluted to a wide range of concentrations in the same buffer. To 20 μl of the enzyme dilutions (a range of concentration), 100 μl of the 1 mM pNPG solution were quickly added. The reaction was incubated at 40° C. for 20 minutes before the reaction was stopped with 50 μl of 1 M sodium carbonate pH 10, and the absorbance at 405 nm was measured for 4-nitrophenolate production. The specific activity of the Penicillium oxalicum GH3 beta-glucosidase on pNPG was determined to be 72.3±1.7 IU/mg, where […] produce 1 μmole of glucose per minute at 40° C., pH 5.
pH profile. The pH activity profile of the Penicillium oxalicum GH3 beta-glucosidase was determined using the same protocol described above, except the beta-glucosidase was incubated at four different pHs (4, 5, 6, and 7) and one enzyme loading was used, which yielded less than 5% conversion. Britton Robinson buffer (100 mM) was used as the buffer system. The 100 mM Britton Robinson buffer was titrated to a various pH values in the range of 4-7 using 5 M sodium hydroxide and then diluted to 40 mM with deionized water. The pNP-glucose was prepared in the same buffer, and the activity was measured at 50° C. The highest activity was normalized to 100%, and activities at the other pH values were compared to the highest activity and expressed in % activity. The pH profile of the Penicillium oxalicum GH3 beta-glucosidase is shown below.

Data set [3] is described as follows: Thermostability: residual activity on pNPG after incubation. The data set is classed as physicochemical. Conditions: 1 g/L, pH 5. As for the experimental part:
as §1
Thermostability. The Penicillium oxalicum GH3 beta-glucosidase was diluted in 50 mM sodium acetate pH 5 with 0.01% TWEEN® 20 to 1 g/L, and then incubated at 50° C. for 3 days, and 60° C. for 3 hours or 24 hours. The same sample was stored at 4° C. to serve as control. After incubation, the residual activity of the samples was measured using pNPG as substrate, following the same assay protocol described above, but using one enzyme loading which yielded less than 5% conversion. The activity of the sample in 4° C. was normalized to 100%, and the activities of samples at other incubation conditions were compared to the 4° C. activity. The thermostability of the Penicillium oxalicum GH3 beta-glucosidase is shown below.

Data set [4] can be described thus: Specific activity on pNPG. Format: biochemical. The settings on record: 40° C., pH 5, 20 minutes. The protocol:
as §1

B1: Penicillium oxalicum GH3 beta-glucosidase: Family GH3 beta-glucosidase of Penicillium oxalicum strain IBT5387 (SEQ ID NO: 2), expressed in Aspergillus oryzae and purified (protein, listed as Penicillium oxalicum)
chain: MRSSTTVLAFVSYGSFGIAAAKPIQEHKPELLNSFHGFQIEEPYSPPFYPSPWMNPRAEGWEDAYQKALAFVSQLTLLEKVNLTTGVGWENGPCVGNTGSVPRLGFKGLCLQDSPQGVRFADYASAFTSSQMAAATFDKTVLYERGVAMAQEHKGKGITVQLGPVAGPLGRAPEGGRNWEGFSPDPVLNGIAMAETIKGMQDTGVLACAKHYVGNEQEHFRQAGESAGHGYNIAESISSNIDDRTMHEMYLWPFADAVRAGVASFMCSYNQINNSYGCQNSHTLNKLLKSELGFQGFVMSDWQAQHSGVSSALAGLDMTMPGDTEFDTGLSFWGSNLTIAVLNGTVPEWRIDDMAMRIMAAYFKVGLTIEDQPDVNFNSWTYDTYGYKYFYSKEGYEKVNWHVDVRANHAQQIRETAAKGTVLLKNTNGALPLKRPSFVAVVGEDAGPNPKGPNGCPDRGCDEGTLAMGWGSGSTQFPFLVTPDSAIQAKVLEYGGRYESILDNYDESAISALVSQPDATCIVFGNSDSGEAFITVDGNWGDRNNLTLWQNADAVIRNVSALCSNTIVVLHTVGPVLLTDYYEHPNITAIVWAGLPGEESGNALVDILWGDVNPAGRTPFTWAKSREDYGTDVMYVPNNGEQAPQQSFSEGIFLDYRHFDQAGIDPIYEFGHGLSYTNFSYSDLRIVTKHVRPYRPTTGMTTQAPIIGPLPSPNLTEYQFPATFKYIPAFIYPYLNSTESLRAASKDPHYGSTAFIPPHALDSSPQPLNPAGDPIASGGNSMLYQELYEITAKITNTGNLAGDEVVQLYVNLGGDNPPRQLRGFDRIHLLPGQSKVFRATLTRRDLSNWDVAAQNWRIIRSAKEVYVGRSSRDLPLSARLESW
For the molecule B1, in data set [1], the “effect on CELLUCLAST 1.5L in PCS hydrolysis” value is “synergistic effect”. Also, the “Activity (relative to highest activity)” value in data set [2] (pH 4.0) is listed as 38%; in data set [2] (pH 5.0), 99%; in data set [2] (pH 6.0), 100%; in data set [2] (pH 7.0) it was 36%. Also, the “Residual activity on pNPG” value in data set [3] (incubation 4° C. (control, normalized to 100%)) is 100%; in data set [3] (incubation 50° C., 72 hours), 100%; in data set [3] (incubation 60° C., 3 hours), 100%; in data set [3] (incubation 60° C., 24 hours) it was 100%; in data set [3] (incubation 70° C., 24 hours), 76%. In addition, the “specific activity on pNPG” value in data set [4] is given as 72.3±1.7 IU/mg.
